Assays:
supercoiled pT75 [1] = experiment: Relative transcription activity with different rNTP/dNTP mixes; assay type: biochemical
Description: Transcription reactions: Transcription reactions were carried out in 40 mM Tris-Cl pH 8.0, 15 mM MgCl2, and 5 mM DTT or 20 mM Manganese Citrate pH 8.0, 5 mM DTT at 37° C. Template, polymerase, and NTP concentrations were as indicated in the legends to the figures and tables. Relative activity determinations were made by taking 4 μl aliquots of reactions at 5, 10, and 20 minute time points and spotting on to DE81 filter paper. Unincorporated nucleotides were separated from incorporated nucleotides by washing the filter paper with 0.5 M KH2PO4 pH 7.0 and retained radioactive nucleotide was quantitated with a Molecular Dynamics phosphorimager. To evaluate rNTP/dNTP selectivity, reactions were run with 4 rNTPs and pT75 as template and α-P^32 rNTPs or α-P^32 dNTPs were used to label the transcripts. The relative rate of incorporation of an rNTP vs. its cognate dNTP was determined from the relative percentages of labeled rNTP vs. dNTP incorporated into DE81 retainable RNA at 5, 10, and 20 minute time points. Apparent miscoding frequencies were determined similarly, though in this instance the template was a single-stranded homopolymer and the reaction contained the complementary unlabeled rNTP, and complementary α-P^32 rNTP or one of the 3 non-complementary α-P^32 rNTPs. The relative percentages of labeled complementary vs. non-complementary rNTPs incorporated at 5, 10 and 20 minute time points gave an apparent miscoding rate. The rNTP/dNTP selectivity assay was used to test the following T7 RNAP mutants for effects on substrate discrimination: D537S, D537E, S539A, R5S1S, D552S, R627S, K631S, L637A, Y639S, Y639F, Y639A, G640A, F644A, G645A, Q649S, […], H811S, H811A, D812A, D812E, D812S, D812N, D879E+ΔF882+ΔA883, D879E+A881T+ΔA883, D879E+F884+A885, D879E+F882Y, D879E+ΔA883, D879E+F882W, D879E.
Relative activity of the W.T. and Y639F polymerases with different NTP combinations: The relative activities of the Y639F and W.T. polymerases with supercoiled pT75 as a template and various combinations of rNTPs/dNTPs were measured in both Mg^2+ and Mn^2+ buffers (see, Table II,).

[2] = 2′,3′-dideoxy NTP preference (relative specificity kcat/Km NTP vs ddNTP); assay type: biochemical
Source text: Numbers reflect the relative specificity (kcat/Km) for an NTP vs. the corresponding ddNTP. Relative specificities could not be evaluated for the wild-type T7 RNAP because the ddNTPs are such poor substrates, but these relative specificities appear to be at least 150-fold.

supercoiled pT75 [3] = experiment: Transcript elongation rate in 3 rNTP + 1 dNTP reactions; assay type: biochemical
Description: Elongation rate determinations were carried out as described (Golomb and Chamberlin, 1974) with some variations (Bonner, et al., 1994).
Elongation rates of Y639F in reactions containing a single dNTP: Elongation rates for Y639F in reactions with 4 rNTPs or 1 dNTP and 3 rNTPs were determined by analyzing aliquots, taken at 10 second intervals, from transcription reactions initiated on supercoiled PT75 by adding NTPs to otherwise complete reaction mixes (FIG. 6).
The template was supercoiled pT75 at 5×10^-7 M. Y639F polymerase was used at a concentration of 10^-6 M. Reactions contained the indicated NTPs. Labeling was with α-P32-rATP (lane e) or α-P32-rGTP (other lanes). After initiation of the reactions aliquots were taken at 10 second intervals and analyzed on 1% agarose denaturing-formaldehyde gels. […] The bars indicate the positions of λ DNA markers.
When analyzed on denaturing agarose gels (FIG. 6) the heterogeneously sized transcripts from these reactions are resolved as a smear with the trailing edge of the smear corresponding to transcripts initiated at t=0 and from which the maximal transcript elongation rate can be determined (Golomb and Chamberlin, 1974; Bonner, et al., 1994). The following elongation rate reductions (relative to a ‘4 rNTP’ reaction) were obtained for reactions containing a 3 rNTPS and 1 dNTP:dATP, ˜3-fold; dUTP, ˜2-fold; dGTP ˜1.5-fold; dCTP, 1-1.5-fold. Because of its poor activity in reactions with dNTPs it was difficult to determine the corresponding elongation rate reductions for the W.T. enzyme.

[4] = transcripts synthesized in vivo; cited from earlier work
[5] = test system: 12 base DNA or RNA primers hybridized to a DNA template; experiment: DNA- and RNA-primed synthesis of DNA and RNA; assay type: biochemical
Source text: DNA- and RNA-primed synthesis of DNA and RNA: In the assays described so far de novo initiated synthesis has been examined. T7 RNAP can also extend RNA primers. Therefore, the abilities of both polymerase to carry out DNA or RNA primed synthesis of DNA and RNA (FIG. 5) were examined.
Transcription reactions contained end-labeled 12 base DNA or RNA primers of identical sequence (GGACACGGCGAA, SEQ ID NO: 4) hybridized to a DNA template ([…] TAAGTATCC, SEQ ID NO: 5). Primer-template concentration was 10^-5 M. Reactions contained the indicated polymerases (10^-7 M) and NTPs. NTP concentrations and electrophoresis as in FIG. 1.

[6] = 1 rNTP, dCTP, dATP, dGTP, with rGMP, Mg^2+
[7] = 1 rNTP, dCTP, dATP, dGTP, with rGMP, Mn^2+
[8] = 1 rNTP, dCTP, dATP, dTTP, Mg^2+
[9] = 1 rNTP, dCTP, dATP, dTTP, Mn^2+
[10] = 1 rNTP, dCTP, dATP, dUTP, Mg^2+
[11] = 1 rNTP, dCTP, dATP, dUTP, Mn^2+
[12] = 1 rNTP, dTTP, dATP, dGTP, with rGMP, Mg^2+
[13] = 1 rNTP, dTTP, dATP, dGTP, with rGMP, Mn^2+
[14] = 1 rNTP, dTTP, dCTP, dGTP, with rGMP, Mg^2+
[15] = 1 rNTP, dTTP, dCTP, dGTP, with rGMP, Mn^2+
[16] = 2 rNTPs, dATP, dGTP, rGMP, Mg^2+
[17] = 2 rNTPs, dATP, dGTP, rGMP, Mn^2+
[18] = 2 rNTPs, dCTP, dGTP, rGMP, Mg^2+
[19] = 2 rNTPs, dCTP, dGTP, rGMP, Mn^2+
[20] = 2 rNTPs, dTTP, dGTP, rGMP, Mg^2+
[21] = 2 rNTPs, dTTP, dGTP, rGMP, Mn^2+

For “W.T.: wild-type T7 RNA polymerase [reference compound]”, the Relative activity (supercoiled pT75 [1]; [6]) was “<.5”, the Relative activity (supercoiled pT75 [1]; [7]) was “<.5” and the Relative activity (supercoiled pT75 [1]; [8]) was “<.5”. The Relative activity (supercoiled pT75 [1]; [9]) was “<.5”, the Relative activity (supercoiled pT75 [1]; [10]) was “<.5” and the Relative activity (supercoiled pT75 [1]; [11]) was “<.5”. For the same substance, the Relative activity (supercoiled pT75 [1]; [12]) was “<.5”, the Relative activity (supercoiled pT75 [1]; [13]) was “<.5” and the Relative activity (supercoiled pT75 [1]; [14]) was “<.5”. For the same substance, the Relative activity (supercoiled pT75 [1]; [15]) was “<.5”, the Relative activity (supercoiled pT75 [1]; [16]) was “<.5” and the Relative activity (supercoiled pT75 [1]; [17]) was “<.5”. The Relative activity (supercoiled pT75 [1]; 2 rNTPs, dATP, dTTP, Mg^2+) was “<.5”, the Relative activity (supercoiled pT75 [1]; 2 rNTPs, dATP, dTTP, Mn^2+) was “<.5” and the Relative activity (supercoiled pT75 [1]; 2 rNTPs, dCTP, dATP, Mg^2+) was “<.5”. For the same substance, the Relative activity (supercoiled pT75 [1]; 2 rNTPs, dCTP, dATP, Mn^2+) was “.5-.9”, the Relative activity (supercoiled pT75 [1]; [18]) was “<.5” and the Relative activity (supercoiled pT75 [1]; [19]) was “<.5”. For the same substance, the Relative activity (supercoiled pT75 [1]; 2 rNTPs, dCTP, dTTP, Mg^2+) was 2, the Relative activity (supercoiled pT75 [1]; 2 rNTPs, dCTP, dTTP, Mn^2+) was 5-7 and the Relative activity (supercoiled pT75 [1]; 2 rNTPs, dCTP, dUTP, Mg^2+) was 2-6. For the same substance, the Relative activity (supercoiled pT75 [1]; 2 rNTPs, dCTP, dUTP, Mn^2+) was 3, the Relative activity (supercoiled pT75 [1]; [20]) was “<.5” and the Relative activity (supercoiled pT75 [1]; [21]) was “<.5”. The Relative activity (supercoiled pT75 [1]; 3 rNTPs, dATP, Mg^2+) was 1-2, the Relative activity (supercoiled pT75 [1]; 3 rNTPs, dATP, Mn^2+) was 1-2 and the Relative activity (supercoiled pT75 [1]; 3 rNTPs, dCTP, Mg^2+) was 4-9. For the same substance, the Relative activity (supercoiled pT75 [1]; 3 rNTPs, dCTP, Mn^2+) was 15, the Relative activity (supercoiled pT75 [1]; 3 rNTPs, dGTP, rGMP, Mg^2+) was “<.5” and the Relative activity (supercoiled pT75 [1]; 3 rNTPs, dGTP, rGMP, Mn^2+) was 1-3. For the same substance, the Relative activity (supercoiled pT75 [1]; 3 rNTPs, dGTP, Mg^2+) was “<.5”, the Relative activity (supercoiled pT75 [1]; 3 rNTPs, dGTP, Mn^2+) was “.5-2” and the Relative activity (supercoiled pT75 [1]; 3 rNTPs, dTTP, Mg^2+) was 11-13. For the same substance, the Relative activity (supercoiled pT75 [1]; 3 rNTPs, dTTP, Mn^2+) was 7-8, the Relative activity (supercoiled pT75 [1]; 3 rNTPs, dUTP, Mg^2+) was 9-11 and the Relative activity (supercoiled pT75 [1]; 3 rNTPs, dUTP, Mn^2+) was 10-11. The Relative activity (supercoiled pT75 [1]; 4 dNTPs, rGMP, Mg^2+) was “<.5”, the Relative activity (supercoiled pT75 [1]; 4 dNTPs, rGMP, Mn^2+) was “<.5” and the Relative activity (supercoiled pT75 [1]; 4 rNTPs, Mg^2+) was 200. The Relative activity (supercoiled pT75 [1]; 4 rNTPs, Mn^2+) was 21-23 and the “Relative specificity NTP vs. corresponding ddNTP” value [2] was “at least 150 fold”.
For “Y639F: T7 RNAP with wild-type tyrosine at position 639 substituted by phenylalanine”, the “Elongation rate reduction relative to 4 rNTP reaction” value (supercoiled pT75 [3]; 3 rNTPs and dATP) was about 3 fold, the “Elongation rate reduction relative to 4 rNTP reaction” value (supercoiled pT75 [3]; 3 rNTPs and dCTP) was 1-1.5 fold and the “Elongation rate reduction relative to 4 rNTP reaction” value (supercoiled pT75 [3]; 3 rNTPs and dGTP) was about 1.5 fold. The “Elongation rate reduction relative to 4 rNTP reaction” value (supercoiled pT75 [3]; 3 rNTPs and dUTP) was about 2 fold, the Relative activity (supercoiled pT75 [1]; [6]) was 3-5 and the Relative activity (supercoiled pT75 [1]; [7]) was 1-2. For the same substance, the Relative activity (supercoiled pT75 [1]; [8]) was 12-14, the Relative activity (supercoiled pT75 [1]; [9]) was “.7-2” and the Relative activity (supercoiled pT75 [1]; [10]) was 10-11. For the same substance, the Relative activity (supercoiled pT75 [1]; [11]) was 2-3, the Relative activity (supercoiled pT75 [1]; [12]) was 11 and the Relative activity (supercoiled pT75 [1]; [13]) was 1.5-2. The Relative activity (supercoiled pT75 [1]; [14]) was 10-13, the Relative activity (supercoiled pT75 [1]; [15]) was 2-4 and the Relative activity (supercoiled pT75 [1]; [16]) was 5-6. The Relative activity (supercoiled pT75 [1]; [17]) was 1-1.5, the Relative activity (supercoiled pT75 [1]; 2 rNTPs, dATP, dTTP, Mg^2+) was 11-14 and the Relative activity (supercoiled pT75 [1]; 2 rNTPs, dATP, dTTP, Mn^2+) was 3-4. The Relative activity (supercoiled pT75 [1]; 2 rNTPs, dCTP, dATP, Mg^2+) was 20-29, the Relative activity (supercoiled pT75 [1]; 2 rNTPs, dCTP, dATP, Mn^2+) was 4-7 and the Relative activity (supercoiled pT75 [1]; [18]) was 11-14. For the same substance, the Relative activity (supercoiled pT75 [1]; [19]) was 2-5, the Relative activity (supercoiled pT75 [1]; 2 rNTPs, dCTP, dTTP, Mg^2+) was 30 and the Relative activity (supercoiled pT75 [1]; 2 rNTPs, dCTP, dTTP, Mn^2+) was 5. The Relative activity (supercoiled pT75 [1]; 2 rNTPs, dCTP, dUTP, Mg^2+) was 27-29, the Relative activity (supercoiled pT75 [1]; 2 rNTPs, dCTP, dUTP, Mn^2+) was 4-7 and the Relative activity (supercoiled pT75 [1]; [20]) was 13-15. The Relative activity (supercoiled pT75 [1]; [21]) was 3-6, the Relative activity (supercoiled pT75 [1]; 3 rNTPs, dATP, Mg^2+) was 73 and the Relative activity (supercoiled pT75 [1]; 3 rNTPs, dATP, Mn^2+) was 2-3. The Relative activity (supercoiled pT75 [1]; 3 rNTPs, dCTP, Mg^2+) was 86, the Relative activity (supercoiled pT75 [1]; 3 rNTPs, dCTP, Mn^2+) was 7-11 and the Relative activity (supercoiled pT75 [1]; 3 rNTPs, dGTP, rGMP, Mg^2+) was 95-109. For the same substance, the Relative activity (supercoiled pT75 [1]; 3 rNTPs, dGTP, rGMP, Mn^2+) was 1.4-2.5, the Relative activity (supercoiled pT75 [1]; 3 rNTPs, dGTP, Mg^2+) was 43-63 and the Relative activity (supercoiled pT75 [1]; 3 rNTPs, dGTP, Mn^2+) was 3. The Relative activity (supercoiled pT75 [1]; 3 rNTPs, dTTP, Mg^2+) was 90-96, the Relative activity (supercoiled pT75 [1]; 3 rNTPs, dTTP, Mn^2+) was 4 and the Relative activity (supercoiled pT75 [1]; 3 rNTPs, dUTP, Mg^2+) was 82-91. The Relative activity (supercoiled pT75 [1]; 3 rNTPs, dUTP, Mn^2+) was 7-8, the Relative activity (supercoiled pT75 [1]; 4 dNTPs, rGMP, Mg^2+) was “<.5” and the Relative activity (supercoiled pT75 [1]; 4 dNTPs, rGMP, Mn^2+) was “.5”. The Relative activity (supercoiled pT75 [1]; 4 rNTPs, Mg^2+) was 200, the Relative activity (supercoiled pT75 [1]; 4 rNTPs, Mn^2+) was 9 and the “Protein per transcript compared to transcripts synthesized by wild-type enzyme” value [4] was “½-⅓”. For the same substance, the “Extension of DNA and RNA primers with dNTPs less efficient than with rNTPs” value [5] was about 4 fold.

— patent publication US20050069907A1, “Methods for using double-mutant RNA polymerases with reduced discrimination between non-canonical and canonical nucleoside triphosphates” (priority 2002, published 2005)
